The target in assay [1] is T1, cynomolgus monkey LAG-3 on activated cynomolgus monkey T cells (cynomolgus monkey).
T1 construct: whole, on cells
Description: flow cytometry, activated cynomolgus CD4+ T cells. The protocol:
To test the ability of the antibodies to bind to native human LAG-3 on the surface of activated human T cells, resting CD4⁺ T cells were isolated from purified peripheral blood mononuclear cells and subjected to three days of stimulation with a combination of anti-CD3 and anti-CD28 antibodies affixed to polystyrene beads. The 25F7, 8B7 and 26H10 monoclonal antibodies were serially diluted with cold 1×PFAE buffer (1×PBS+2% FBS, 0.02% sodium azide, 2 mM Na EDTA). For the binding reaction, 50 μl of diluted antibody solution was mixed with 50 μl of PE-labeled anti-human CD4 (BD Bioscience, Cat # 555347). Activated T cells were processed by the same protocol described above. The analysis of antibody binding was conducted as described above.
In a separate experiment, the antibodies were tested for binding to cynomolgus monkey LAG-3 using activated cynomolgus monkey T cells. In vitro activation of these monkey T cells was achieved through anti-CD³/anti-CD28 treatment of the T cells by essentially the same protocol described above for the in vitro activation of human T cells, followed by flow cytometry analysis performed as described above for staining of in vitro activated human CD4⁺ T cells.
In general terms: In flow cytometry, cells or beads pass a laser one at a time.

In assay [2] the target is T2, LAG-3 fusion protein comprising human LAG-3 extracellular domain fused to mouse Fc (human, UniProt P18627 23-450).
T2 construct: extracellular domain; also called hLAG-3-mIg; LAG-3-mIg; not shown: mouse Fc
T2 sequence (looked up): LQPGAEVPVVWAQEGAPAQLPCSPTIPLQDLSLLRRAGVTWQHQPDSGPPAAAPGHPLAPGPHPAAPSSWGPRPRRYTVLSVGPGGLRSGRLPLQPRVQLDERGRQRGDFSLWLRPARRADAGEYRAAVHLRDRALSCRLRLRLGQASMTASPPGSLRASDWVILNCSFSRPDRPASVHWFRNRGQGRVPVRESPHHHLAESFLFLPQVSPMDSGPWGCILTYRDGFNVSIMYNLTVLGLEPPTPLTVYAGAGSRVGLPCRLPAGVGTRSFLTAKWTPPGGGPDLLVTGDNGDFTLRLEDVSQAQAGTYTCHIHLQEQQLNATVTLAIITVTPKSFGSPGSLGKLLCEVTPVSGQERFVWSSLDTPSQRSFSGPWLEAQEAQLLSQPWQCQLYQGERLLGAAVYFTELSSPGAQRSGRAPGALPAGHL
Description: flow cytometry, inhibition of hLAG-3-mIg binding to MHC Class II on Daudi cells. The protocol:
To test the ability of the anti-LAG-3 antibodies to inhibit binding of LAG-3 to MHC Class II molecules, an in vitro binding assay was performed in which a LAG-3 fusion protein, comprising human LAG-3 extracellar domain fused to mouse Fc (hLAG-3-mIg), was reacted with Daudi cells, which express human MHC Class II molecules.
This mixture was incubated for 20 minutes at room temperature prior to adding to 2×10^{5 1}×PFAE-washed Daudi cells. The mixture was applied to Daudi cells and incubated at 4° C. for 30 minutes. The cells were pelleted (three minutes, 400×g), washed once with 1×PFAE buffer and re-pelleted, and binding of hLAG-3-mIg to the Daudi cells was detected using a recombinant PE-labeled anti-mIgG Fcγ secondary reagent. Analysis of LAG-3-mIg binding was carried out with the FACScalibur flow cytometer (BD Bioscience).

In assay [3] the target is T3, human LAG-3 (cell surface) (human, UniProt P18627 23-525).
T3 construct: whole, on cells; also called CHO-human LAG-3
T3 sequence (looked up): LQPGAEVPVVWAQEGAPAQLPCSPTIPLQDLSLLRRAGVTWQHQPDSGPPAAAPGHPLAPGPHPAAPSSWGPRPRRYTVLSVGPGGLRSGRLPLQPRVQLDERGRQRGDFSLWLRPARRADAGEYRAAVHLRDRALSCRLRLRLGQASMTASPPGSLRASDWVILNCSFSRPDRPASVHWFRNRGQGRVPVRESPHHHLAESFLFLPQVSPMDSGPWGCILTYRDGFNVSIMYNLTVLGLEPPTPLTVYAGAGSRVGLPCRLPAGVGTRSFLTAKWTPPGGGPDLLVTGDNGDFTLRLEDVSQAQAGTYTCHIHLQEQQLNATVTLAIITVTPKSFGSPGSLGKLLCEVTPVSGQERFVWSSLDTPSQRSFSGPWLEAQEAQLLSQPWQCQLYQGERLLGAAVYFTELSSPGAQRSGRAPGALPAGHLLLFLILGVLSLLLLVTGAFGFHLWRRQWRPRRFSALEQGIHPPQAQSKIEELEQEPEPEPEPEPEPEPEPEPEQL
Nature of the assay: flow cytometry, CHO cells expressing human LAG-3. The protocol:
To test the ability of the antibodies to bind to cell surface LAG-3 protein, the antibodies were incubated with a CHO cell line that had been transfected to express human LAG-3 on the cell surface. The 25F7, 26H10, 25E3, 8B7, 11F2 and 17E5 monoclonal antibodies were serially diluted with cold lx PFAE buffer (1×PBS+2% FBS, 0.02% sodium azide, 2 mM Na EDTA). For the binding reaction, 50 μl of diluted antibody solution was added to a 50 μl cell suspension containing 2×10⁵ cells and the mixture was incubated on ice for 30 minutes. The cells were then washed two times with 1×PFAE buffer. A 1:100 dilution of FITC-labeled goat anti-human kappa light chain antibody (Bethyl Laboratories, Inc., Cat. # A80-115F) was added and the mixture was incubated for 30 minutes at 4° C., followed by washing twice with cold 1×PFAE buffer. After the final wash, 150 μl of cold 1×PFAE containing 10 μg/mL propidium iodide (Roche Applied Science, Cat #1 348 639) was added to each solution and analysis of antibody binding was carried out by flow cytometry using a FACScalibur flow cytometer (BD Bioscience).

The target of assay [4] is T4, human LAG-3 full-length extra loop peptide (human, conjugated to biotin).
T4 construct: Exposed extra loop of the immunoglobulin-like first extracellular domain of LAG-3; also called LAG-3 extra loop
T4 peptide: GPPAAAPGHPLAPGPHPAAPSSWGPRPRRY
Nature of the assay: ELISA on human full-length extra loop peptide. The protocol:
To further examine binding of these antibodies to the extra loop peptide region, additional ELISA assays were performed. In an ELISA assay using the human full-length extra loop peptide (SEQ ID NO: 79), EC₅₀ values for binding were determined for 25E3, 25F7 and 8B7. Additionally, a similar peptide ELISA was conducted using the full length extra loop peptide sequence from rhesus monkey LAG-3, having the sequence […] (SEQ ID NO: 90), and EC₅₀ values for binding were determined for 25F7 and 8B7. […] Moreover, antibodies 25F7 and 8B7 also bind to the rhesus LAG-3 extra loop peptide region, albeit less well compared to the human sequence, which may be due to the species sequence divergence in this polypeptide. The results also confirm that the 26H10 antibody is not capable of recognizing the LAG-3 extra loop peptide.
A general note: In an ELISA, binding on a coated surface is turned into a signal by an enzyme label.

B1: 26H10 human monoclonal antibody (antibody, IgG1, V domains shown)
VH: QVQLVESGGGVVQPGRSLRLSCAASGFTFSSYGMHWVRQAPGKGLEWVAVIWYDGSNKYYADSVKGRFTISRDNSKNTLYLQMNSLRAEDTAVYYCAREWAVASWDYGMDVWGQGTTVTVSS
VL: not shown
notes: also called 26H10-FITC
As usually defined, the EC50 is the midpoint of the concentration-response curve. The IC50 is the concentration at which inhibition is half-maximal. As to B1, the values for the EC50 in assay [1] and in assay [3] were 5.19 nM and 1.81 to 3.64 nM, respectively. This molecule also came in with an IC50 in assay [2] of 0.1 nM. For the same molecule, in assay [4], the binding result is “no binding”.

B2: 25E3 human monoclonal antibody (antibody, IgG1, V domains shown)
VH: EVQLVESGGGVVRPGGSLRLSCAASGFTFDDYGMSWVRQAPGKGLEWVSGINWNGGSTYYADSVKGRFTISGDNAKNSLYLQMNSLRAEDTALYYCTTGGYWGQGTLVTVSS
VL: AIQLTQSPSSLSASVGDRVTITCRASQGIRSALAWYQQKPGKAPKLLIYDASSLESGVPSRFSGSGSGTDFTLTISSLQPEDFATYYCQQFNSYPYTFGQGTKLEIK
In assay [2], B2 came in with an IC50 of 0.8 to 6.78 nM. Besides, the values for the EC50 in assay [3] and in assay [4] were 14.9 to 25.4 nM and 0.55 nM, respectively.

B3: 25F7 human monoclonal antibody (antibody, IgG1, V domains shown)
VH: QVQLQQWGAGLLKPSETLSLTCAVYGGSFSDYYWNWIRQPPGKGLEWIGEINHNGNTNSNPSLKSRVTLSLDTSKNQFSLKLRSVTAADTAVYYCAFGYSDYEYNWFDPWGQGTLVTVSS
VL: EIVLTQSPATLSLSPGERATLSCRASQSISSYLAWYQQKPGQAPRLLIYDASNRATGIPARFSGSGSGTDFTLTISSLEPEDFAVYYCQQRSNWPLTFGQGTNLEIK
notes: also called 25F7-FITC (IgG1 version)
For B3, the EC50 in assay [1] was 14.2 nM; in assay [3], 0.45 to 2.52 nM; in assay [4], 0.29 to 0.95 nM. This molecule also yielded an IC50 in assay [2] of 0.12 to 0.92 nM. Besides, in assay [3], the “fold lower EC50 than 25E3” value is approximately 20 fold.

B4: 8B7 human monoclonal antibody (antibody, IgG4, V domains shown)
VH: QVQLQQWGAGLLKPSETLSLTCAVYGGSFSGYYWSWIRQPPGKGLEWIGEINHRGNTNCNPSLKSRVTISGDTSKKQFALKLNSVTAADTAVYYCARGYDILTGYYEDSWGPGTLVTVSS
VL: EIVLTQSPATLSLSPGERATLSCRASQSVSSYLAWYQQKPGQAPRLLIYNASNRATGIPARFSGSGSGTDFTLTISSLEPEDFAVYYCQQRSNWPLTFGGGTKVEIK
notes: also called 8B7-FITC
For B4, the results for the EC50 in assay [1], in assay [3] and in assay [4] were 30.4 nM, 1.93 to 4.44 nM and 0.28 to 1.35 nM, respectively. In assay [2], this molecule registered an IC50 of 0.19 to 0.95 nM.

The values are drawn from patent publication US20200231671A1 (E R SQUIBB AND SONS L L C, published 2020).
